In this assay the target is T cell surface antigens CTLA4 and PD-1. Nature of the assay: flow cytometry, PHA-stimulated CD4+ T cells, antibody 100 nM (PBS 8.39). For orientation: A flow cytometer gives signals particle by particle.

The substance hIgG (control) (antibody) returned an MFI (fluorescence intensity) of 10.2.

For the origin of these results see patent US20260274952A1.
